The record followed here is article PMC10897178, “FANCJ DNA helicase is recruited to the replisome by AND-1 to ensure genome stability” (EMBO Reports, 2024).

B2: 6xHis-tagged AND-1 SepB (domain or fragment, human, UniProt O75717 336-826, looked up)
chain: GDFLNDNAVEIPSFSKGIINDDEDDEDLMMASGRPRQRSHILEDDENSVDISMLKTGSSLLKEEEEDGQEGSIHNLPLVTSQRPFYDGPMPTPRQKPFQSGSTPLHLTHRFMVWNSIGIIRCYNDEQDNAIDVEFHDTSIHHATHLSNTLNYTIADLSHEAILLACESTDELASKLHCLHFSSWDSSKEWIIDLPQNEDIEAICLGQGWAAAATSALLLRLFTIGGVQKEVFSLAGPVVSMAGHGEQLFIVYHRGTGFDGDQCLGVQLLELGKKKKQILHGDPLPLTRKSYLAWIGFSAEGTPCYVDSEGIVRMLNRGLGNTWTPICNTREHCKGKSDHYWVVGIHENPQQLRCIPCKGSRFPPTLPRPAVAILSFKLPYCQIATEKGQMEEQFWRSVIFHNHLDYLAKNGYEYEESTKNQATKEQQELLMKMLALSCKLEREFRCVELADLMTQNAVNLAIKYASRSRKLILAQKLSELAVEKAAELTAT
notes: AND-1 (WDHD1), human, SepB domain, amino-acid residues 336-826; pRSF-Duet-1 construct from Luca Pellegrini; purification as in Kilkenny et al, 2017; also called 6xHis-SepB; AND-1 SepB domain; source: E. coli BL21 (DE3), purified

Common to all, as to details: both partners purified
The target of the assay “6xHis-tagged AND-1 SepB” is B2. The assay is described as follows: pull-down; GST-FANCJ CIP box on Glutathione Sepharose 4B beads, purified AND-1 SepB (0.5 mg in 500 μL) added; PD Buffer 1 with 1% BSA, 1 h at 4 °C; SDS-PAGE, Coomassie.
Assay [1] concerns the target T1, Flag-tagged FANCJ wild type (human, UniProt Q9BX63 1-1249).
T1 construct: FANCJ (BRIP1, BACH1) DNA helicase, human, open reading frame; purified as full-length protein; Plasmid from Hisao Masai (Uno et al, 2012); also called FANCJ WT; Flag-FANCJ WT; source: HEK 293T, transiently transfected (pCSII-EF-MCS): in whole-cell extract or nuclear fraction; also purified (anti-Flag M2 agarose, 3x Flag-peptide elution)
T1 sequence (looked up): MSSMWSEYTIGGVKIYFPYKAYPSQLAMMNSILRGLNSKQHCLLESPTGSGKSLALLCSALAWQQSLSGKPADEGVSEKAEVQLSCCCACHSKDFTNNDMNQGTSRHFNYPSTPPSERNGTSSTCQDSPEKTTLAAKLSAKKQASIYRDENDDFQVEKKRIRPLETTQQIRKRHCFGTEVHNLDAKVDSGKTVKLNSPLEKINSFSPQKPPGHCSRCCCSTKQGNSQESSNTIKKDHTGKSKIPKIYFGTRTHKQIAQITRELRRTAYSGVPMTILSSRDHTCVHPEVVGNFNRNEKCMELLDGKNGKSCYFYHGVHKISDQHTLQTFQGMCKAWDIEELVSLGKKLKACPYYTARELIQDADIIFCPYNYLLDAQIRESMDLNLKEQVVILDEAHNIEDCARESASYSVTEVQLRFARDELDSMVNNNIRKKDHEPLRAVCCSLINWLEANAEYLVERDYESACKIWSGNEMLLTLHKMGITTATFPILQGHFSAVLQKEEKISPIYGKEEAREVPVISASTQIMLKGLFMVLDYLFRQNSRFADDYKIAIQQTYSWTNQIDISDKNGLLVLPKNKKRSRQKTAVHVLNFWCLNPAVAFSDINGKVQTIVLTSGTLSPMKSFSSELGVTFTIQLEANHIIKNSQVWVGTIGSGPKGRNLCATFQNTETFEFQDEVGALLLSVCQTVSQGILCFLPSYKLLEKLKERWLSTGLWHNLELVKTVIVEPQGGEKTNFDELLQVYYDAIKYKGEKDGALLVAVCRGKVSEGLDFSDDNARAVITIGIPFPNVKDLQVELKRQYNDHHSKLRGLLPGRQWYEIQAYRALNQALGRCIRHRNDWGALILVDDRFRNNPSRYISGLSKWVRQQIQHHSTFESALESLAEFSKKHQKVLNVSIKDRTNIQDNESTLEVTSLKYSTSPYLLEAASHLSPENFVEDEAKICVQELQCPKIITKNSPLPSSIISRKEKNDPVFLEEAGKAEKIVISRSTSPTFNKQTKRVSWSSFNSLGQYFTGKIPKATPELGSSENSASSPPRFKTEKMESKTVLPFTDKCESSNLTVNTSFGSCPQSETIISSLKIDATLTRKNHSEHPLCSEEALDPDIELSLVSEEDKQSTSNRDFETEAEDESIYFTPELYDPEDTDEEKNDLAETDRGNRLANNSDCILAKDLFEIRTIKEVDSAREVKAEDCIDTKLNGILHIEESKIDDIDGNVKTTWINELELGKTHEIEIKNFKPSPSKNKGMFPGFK
The assay is described as follows: pull-down; Flag-tagged protein (2 µg) on anti-Flag M2 agarose beads, purified AND-1 SepB (4 µg) added; 20 mM HEPES-NaOH pH 7.2, 150 mM NaCl, 0.1% Igepal, 1% BSA, 4 °C; Western blot.

Assay [2] concerns the target T1, Flag-tagged FANCJ wild type. The assay is described as follows: pull-down; His10-Myc-AND-1 (12 μg) on c-Myc magnetic beads, purified FANCJ (4 μg) added; PBS, 5% glycerol, 0.5 mM TCEP, 0.2% Igepal, Benzonase, 2 h at 4 °C; Western blot. A general note: A western blot detects proteins with antibodies after separation by electrophoresis.

B1: GST-FANCJ CIP box wild type (domain or fragment, human, UniProt Q9BX63 730-747, looked up)
chain: GEKTNFDELLQVYYDAIK
notes: FANCJ (BRIP1), human, CIP box, amino-acid residues 730-747; also called GST-CIP box WT; source: transformed cells cultured in LB medium, IPTG-induced (pGEX-6P-1); captured from the soluble extract on Glutathione Sepharose 4B beads
As for B1, the binding result in the assay with 6xHis-tagged AND-1 SepB is reported as “binds”. Turning to B2, in assay [1], the binding result was “binds”.

B3: full-length 10xHis-Myc-tagged AND-1 (natural protein, human, UniProt O75717 1-1129, looked up)
chain: MPATRKPMRYGHTEGHTEVCFDDSGSFIVTCGSDGDVRIWEDLDDDDPKFINVGEKAYSCALKSGKLVTAVSNNTIQVHTFPEGVPDGILTRFTTNANHVVFNGDGTKIAAGSSDFLVKIVDVMDSSQQKTFRGHDAPVLSLSFDPKDIFLASASCDGSVRVWQISDQTCAISWPLLQKCNDVINAKSICRLAWQPKSGKLLAIPVEKSVKLYRRESWSHQFDLSDNFISQTLNIVTWSPCGQYLAAGSINGLIIVWNVETKDCMERVKHEKGYAICGLAWHPTCGRISYTDAEGNLGLLENVCDPSGKTSSSKVSSRVEKDYNDLFDGDDMSNAGDFLNDNAVEIPSFSKGIINDDEDDEDLMMASGRPRQRSHILEDDENSVDISMLKTGSSLLKEEEEDGQEGSIHNLPLVTSQRPFYDGPMPTPRQKPFQSGSTPLHLTHRFMVWNSIGIIRCYNDEQDNAIDVEFHDTSIHHATHLSNTLNYTIADLSHEAILLACESTDELASKLHCLHFSSWDSSKEWIIDLPQNEDIEAICLGQGWAAAATSALLLRLFTIGGVQKEVFSLAGPVVSMAGHGEQLFIVYHRGTGFDGDQCLGVQLLELGKKKKQILHGDPLPLTRKSYLAWIGFSAEGTPCYVDSEGIVRMLNRGLGNTWTPICNTREHCKGKSDHYWVVGIHENPQQLRCIPCKGSRFPPTLPRPAVAILSFKLPYCQIATEKGQMEEQFWRSVIFHNHLDYLAKNGYEYEESTKNQATKEQQELLMKMLALSCKLEREFRCVELADLMTQNAVNLAIKYASRSRKLILAQKLSELAVEKAAELTATQVEEEEEEEDFRKKLNAGYSNTATEWSQPRFRNQVEEDAEDSGEADDEEKPEIHKPGQNSFSKSTNSSDVSAKSGAVTFSSQGRVNPFKVSASSKEPAMSMNSARSTNILDNMGKSSKKSTALSRTTNNEKSPIIKPLIPKPKPKQASAASYFQKRNSQTNKTEEVKEENLKNVLSETPAICPPQNTENQRPKTGFQMWLEENRSNILSDNPDFSDEADIIKEGMIRFRVLSTEERKVWANKAKGETASEGTEAKKRKRVVDESDETENQEEKAKENLNLSKKQKPLDFSTNQKLSAFAFKQE
notes: AND-1 (WDHD1), human, full length, amino-acid residues 1-1129; pFBDM construct from Luca Pellegrini (Kilkenny et al, 2017); also called His10-Myc-tagged AND-1; AND-1 full-length; source: High-Five insect cells, baculovirus, purified (Ni-NTA, HiTrap Q)
As to B3, in assay [2], the binding result is on record as “binds”.
